{"source": "patent US20210332109A1", "about": "(TANAKA KIKINZOKU KOGYO K K, published 2021)", "binders": {"B1": {"name": "Antibody 18 (antibody, V domains shown)", "VH": "EVQLQESGPGLVKPSQSLSLTCTVTGYSITSDYAWNWIRQFPGNKLEWMGYISYSGNSSYNPSLKSRISFTRDTSKNQFFLQLNSVTTEDTATYYCARDGSRGFDYWGQGTTLTVSS", "VL": "not shown", "notes": "also called antibody (II); monoclonal antibody produced by Hybridoma 18"}}, "biological_target": "T1, protein VZV gE (amino acid sequence at positions 48 to 88) (varicella-zoster virus)", "T1 peptide": "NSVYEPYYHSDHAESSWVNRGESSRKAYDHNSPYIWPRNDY", "assay": "ELISA, peptide coated on the plate, antibody at 5 ug/mL"}
{"binder": "B1", "values": [{"measurement": "binding result", "value": "binds"}]}
